assay: soluble fraction after stress (log2 fold change); higher = more stays soluble; pooled small domains, quantitative proteomics; conditions: stress: pH 4
Outline: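 Values are on a log2 scale, where higher means more of the domain stayed soluble after pH 4 stress. They are fold changes in the soluble amount of each domain from pooled custom libraries, measured by high-throughput quantitative proteomics. The fold change is taken to reflect aggregation propensity.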

“HMETVMYLRQIKRPQGIYLAIQESYYDSSKKQSRTRTIESIGYLDNLRKEYEDPIAFFSQKAAAMTSEKKK” and “HMERLKKYLDDVRTFLPGTNPKKVDEILREIESHVLERAEREHGEVNDNAVAMSIKEYGSPEEVAARYYEG” are within 0.2 log units of each other in “soluble fraction (log2)” value: -0.177 for the first, -0.29 for the second.

Going from “HMDKKEFGKRLKNLRIRNKMSQQAMADSLGYTSRSTINKIEEGINEMSYDKIVRLMELYGLSRPDLGLEPI” to “HMKYRLLGENLQTIRKARGMKQQELADQIGINMQSLSKIERGLNYPTFETLEKIMNALGITPNELLSG”, the “soluble fraction (log2)” value falls from -0.157 to -0.798.

Going from “HMQTQVEVLVKYVLEDGTVYKEDKVSADIGAILDSGDLPMLSNDMKFIDDFLFYEVKESDNVIERKVAKLV” to “HMKGSIFLDEATKMVDNSALKSLNTFLEEYARETNNQIFLISHQETPAEVTQIKLKKVGGETSYE”, the “soluble fraction (log2)” value rises from -1.41 to -0.0644.

“HMSEPRYRQLATILAQEIRSNHSAGDQLPSEQALAKRFEVNRHTVRRAVDELVAAGMVTRHQGWGTQVV” and “HMSAQPMEYSRFYSDVTQGRVAEVEIEGREINGRLSTGERFKTFSPETDNKALIGHLLDNGVVIEGKPP” are within 0.2 log units of each other in “soluble fraction (log2)” value: 0.243 for the first, 0.0726 for the second.

Compared with “HMTNVFSIIGKKALVIKDIDPIHSSGQIKLNGEVWSAETENDEIIKEGSEVEVLKINGVKAIVKLV”, “HMIILYTDEQQRIIDRLNEFIGEQPSQNEAAKLLGISAPILTNLRKGTYTGTVDKFMNKLAAYFNIKADLG” is lower in “soluble fraction (log2)” value: 0.149 for the first, -0.372 for the second.

Going from “HMEKKTILIPPVITVRALAEISQIPVNRLLQELIKNGVFTSINEKIDFDTAVIIGADLNLDIQLL” to “HMTIDNPESQKIMDMVPFFFQSRNYDEAIEALTYVIEQEPQFSEAYNKRATFYFMMGDLENSMKDIEITLA”, the “soluble fraction (log2)” value rises from -0.984 to -0.568.

Compared with “HMQGEVPYSQFLTEVDRGDVQSVVIEGNNISGFYKNSSTAFTVVAPDDPKLVERLMEQGVEVKARPV”, “HMDLPDTLSMPNALKVLEDNGFPTSKAKLYKMTSQEQIPFMKYGNKLVFSRKALIEWAHKQLV” is lower in “soluble fraction (log2)” value: no less than 0.43 for the first, 0.301 for the second.

Compared with “HMQQIQILPDGKIKLPDLSGTNMREAIEILHKGGLRMKPYGSGNAYQQKPAAGETVASGTTVEVLSL”, “HMTNNDIIRRVRYLFNFSDKQVIELFKLANETVSIEHVSGWLKKEEDPTLIEISDRDLAVFLNGLII” is lower in “soluble fraction (log2)” value: 0.0974 for the first, -1.65 for the second.

Compared with “HMARLQEVVVRVPVEDGQTLAAIYREAEVIERADEGTGVLLTVRIPAPLLGRLRRLEGVHVQP”, “HMGKVLIYKPNMSVSDVAIRLGISNAEIIKRLMGLGVMTSINQTIDRDTIELVAMDLGFSIEN” is lower in “soluble fraction (log2)” value: -0.348 for the first, -0.581 for the second.

Going from “HMRIDSFEDARRRFEYDYLTRLLKLTQGSVTQAAKLAKRNRTEFYKLLQRHGIEAAHFKPTS” to “HMSWEELLEHLEKAAERGEEVRIAGVTLHDEEDFKRALRWLKEWL”, the “soluble fraction (log2)” value falls from no less than 0.43 to -1.47.

First: HMTFPYTSLKDAPKNMKEIDGVPLTLDQVNQIAKVADSIGVSKEKNGYAIAKSQFKKSHHIENNRWVKNK
Second: HMSVDDEQLLKIIDDIFQQNPQAVTDAKTDSNAIHFLIGQVMKETKGHADHAISKEIIEKKLS
The “soluble fraction (log2)” value of the first is higher: 0.126 for the first, -0.726 for the second.

Compared with “HMKDNPNETFERIAGKITRTLRSGPVRIQQLDLLFSESAGKVVDVLRAMAENGEVLIKDDTIQLNGNN”, “HMGTIEEYSKYLINQYFDSLKKPMDAMTTSEKIEIVKSLDKKGIFNLKGSVGELAKRFNTSEKTIYRYLSS” is higher in “soluble fraction (log2)” value: -0.261 for the first, 0.00746 for the second.

First: HMVWPETEAIVTEDFIGKKRSEVQQEGVIFEFFGEGDMVIDQLPRGGVTLNESGRVWIYLGEDTF
Second: HMLVGRDPQALILGSMPSEKSLEEDEYYAHPRNRFWSLMNWLLAGNKTRPAYKTGIEILSSHGIALWV
The “soluble fraction (log2)” value of the first is lower: -1.4 for the first, -0.578 for the second.

First: HMREKLKEYVHLLFAGTVGKEDMEQEILQNTLDRFDDWVARGFSEEDAYRKAVSGIGDIDALLG
Second: HMTSLTSDEEQIINVLRAEESVYINALATKSKIPLQKLLGLLIQLEFKGLIHSLPGSHYKIV
The “soluble fraction (log2)” value of the first is lower: -2.07 for the first, -0.473 for the second.

Compared with “HMEMPGGVMRTLSTIAYNQPVLQSKLVKVRGPRAYEDVHILRDMGLVSARSVGQTVELSTTPKFAEQF”, “HMSAETREELVGREGVSLTDLRPSGFALFGQEKIDVVSESEFIEEGTSVRIVSVEGSRHIVRAKR” is lower in “soluble fraction (log2)” value: 0.102 for the first, -1.24 for the second.

Compared with “HMDDNMNEQWKMILNSIAKKGSVTRQETEKILGIGQTRAHVLLKAMIHAGMIKAVGDGKKRRYVR”, “HMDLSQTVQAKALARVNVREGAGTHFKSLGKLKKGELLPVFRVGNSWASIWWKGRVAYVHTDYLRFESA” is lower in “soluble fraction (log2)” value: no less than 0.43 for the first, -0.153 for the second.

Going from “HMMLVKKMLNGIMMKEITIKELADQYDVSTRTIQLKIKKLGYEWDSKESIYRYVGKESEPLDVDFSTLI” to “HMSATEPVHFDPNKSPEDMTVEELQAGILAKMANNGPVSDQMKKTVNENIWHDSLVNWLKSF”, the “soluble fraction (log2)” value rises from -1.47 to -0.0828.

Compared with “HMDHFLRRFQVEGLNLEKLLRLAAEREMDLLQVRRSGRRMTGLVAEKRLPELEELAAQGGWALRLGEY”, “HMVTLYDGFLSELRKRIPRGAELTNTLVDMLYIEREAVYRRLRGEVPFTFIEVMTVSKELGISLDNLAQA” is lower in “soluble fraction (log2)” value: no less than 0.43 for the first, -0.802 for the second.

Compared with “HMAHLNYQTVDINALIRHSLQLVSQDAQSRGIALQFTPRPELTTISADPDRLNQVLLNLYLNAMQD”, “HMKRSFGSVRQLRSGNYQARYTGPDTVRHTSPVTYTSKMDAEAWLVDERRKISSGTWTPPAR” is higher in “soluble fraction (log2)” value: -0.205 for the first, 0.251 for the second.

First: HMPKNRTDYVQDVLKSLGRPAHYKEITQIINAMLPKEAQYSAKSIQVVLGSSPLFIRVGTGTYALVE
Second: HMDGFAEFWSAYPKKVGKGAAEASWRKHRPPLQTVLDAVKRQAESDQWRKDGGQFIPNPATWLNQKRWEDD
The “soluble fraction (log2)” value of the first is lower: -0.79 for the first, -0.101 for the second.

“HMDKKTMFNEALAKLVSYATAHDNLITMEDVKSFFNGLIDDDSQYKLIYDYLSINKIEIKGFT” and “HMQDVVFTVDKDQTGAEIGDMLYEKGIISSPTTFRLALRLTGSMDKLQQGYYQIPQNASLRQVIALLQKG” are within 0.2 log units of each other in “soluble fraction (log2)” value: -0.704 for the first, -0.522 for the second.

Going from “HMASLASVAYETLRQALDNFQYVPGDRFSESEVGQQLGMSRTPVREALVRLQREGYISVLPKMGWVVNQ” to “HMGLQLTPVRRRVLEILLHEHRALGAYDILDKLRSEGLGSQPPVAYRALDFLVTHGFAHKIERLNAF”, the “soluble fraction (log2)” value rises from -0.953 to -0.0897.

Going from “HMGASVGEVESVKTASEIYTAAAGKIVAVNDAVAKDPSLVNSDPYGNGWLVKLEIADLSAINA” to “HMGGNDALEIAKSNPQVIEVLGEPVTKDGMGSYSVNYKNGHKTSEATIPIEGPNGTATLHVKTSGSDDAL”, the “soluble fraction (log2)” value rises from -0.304 to 0.22.

“HMETYTVPEVLGLTPEQAAQLPEVKDIFTLDVKEEGDFSDKPVGTIVRQSPTEGEHRKGDNLVIEVWLSV” and “HMLAQDVIVKQDGGTILSKVLEIGTQEIAYKKWNSQDGPVYKIAKDQVLSVNYQNGEVDRFA” are within 0.2 log units of each other in “soluble fraction (log2)” value: -0.269 for the first, -0.233 for the second.

First: HMGPNSVPDLRGKSLRQAMKMVNDLELKAIFEGEGIVVGQVPAPGKPVPETKILKITLSLEPY
Second: HMNLGLTGDPSVLYSILLQRGDSSRADLQRQTGWSLSKTTLVLNQLLAQKLIVQVGAGRSTQYRVIN
The “soluble fraction (log2)” value of the first is higher: 0.0736 for the first, -0.196 for the second.

“HMENVQLRNFAIKATEAGIIKLSSDQRTFMWASNQKKLMTVPFDEHPYSAMAQFFKTDEGLAVFKSIEKKL” and “HMKFYKMIDESDEKIENPEIMIFQIIELVSSTTYSAIINKEPVDVETLKPYLYQTIRTIIINHQS” are within 0.2 log units of each other in “soluble fraction (log2)” value: -0.428 for the first, -0.582 for the second.

First: HMTGENWAERSRQLAAAGLLVLGKEAQEKIASLPNLIPLIEAAAASDTRLLNAQTIDELLSFVPTEETI
Second: HMDAYLPETVQKLLDVMDFDVPYSAAQLMEKLGLKSRASFRKLYLLPALEKNLIAMGVPDKPTSRNQTYIR
The “soluble fraction (log2)” value of the first is lower: -0.98 for the first, 0.169 for the second.

Going from “HMYDRIKLLKLREKRGLTQYELAEKAGISVVTLNKIETSDMAKPFASTLKKIALALGVGIEELS” to “HMSGGIVRLAVKPWGEVFVDGASRGITPPLKQLTLDAGVHRIEIRNPAGPSWTKDVDVVAGQPTTVSHRF”, the “soluble fraction (log2)” value falls from 0.22 to 0.0131.

Reference: the domain aggregation screens of Martell et al. (2025)
